To fix the notation:
B1: scFv; the commonest letter at each place (parent)
chain 1: EVKLDETGGGLVQPGRPMKLSCVASGFTFSDYWMNWVRQSPEKGLEWVAQIRNKPYNYETYYSDSVKGRFTISRDDSKSSVYLQMNNLRVEDMGIYYCTGSYYGMDYWGQGTSVTVS
chain 2: DVVMTQTPLSLPVSLGDQASISCRSSQSLVHSNGNTYLRWYLQKPGQSPKVLIYKVSNRFSGVPDRFSGSGSGTDFTLKISRVEAEDLGVYFCSQSTHVPWTFGGGTKLEIK

The variants in the data set “fluorescein” derive from B1. Put plainly: Kd (Tite-Seq). The following applies: with fluorescein; format: scFv 4-4-20, heavy + light.
The variants in data set [1] derive from B1. Kind of data set: yeast surface expression (ratio to wild type); higher = more expressed. Conditions: format: scFv 4-4-20, heavy + light.

The Kd is the equilibrium constant for the complex coming apart. As to chain 1 EVKLDETGGGLVQPGRPMKLSCVASGFTFSNYWMTWVRQSPEKGLEWVAQIRNKPYNYETYYSDSVKGRFTISRDDSKSSVYLQMNNLRVEDMGIYYCTGSYYGMDYWGQGTSVTVS chain 2 DVVMTQTPLSLPVSLGDQASISCRSSQSLVHSNGNTYLRWYLQKPGQSPKVLIYKVSNRFSGVPDRFSGSGSGTDFTLKISRVEAEDLGVYFCSQSTHVPWTFGGGTKLEIK [chain 1 D31N N35T], the Kd with fluorescein was at least 10 µM. Besides, in data set [1], the yeast surface expression worked out at 0.86.

With chain 1 EVKLDETGGGLVQPGRPMKLSCVASGFTFSDYWMNDVRQSPEKGLEWVAQIRNKPYNYETYYSDSVKGRFTISRDDSKSSVYLQMNNLRVEDMGIYYCTGSYYGMDYWGQGTSVTVS chain 2 DVVMTQTPLSLPVSLGDQASISCRSSQSLVHSNGNTYLRWYLQKPGQSPKVLIYKVSNRFSGVPDRFSGSGSGTDFTLKISRVEAEDLGVYFCSQSTHVPWTFGGGTKLEIK [chain 1 W36D], the Kd with fluorescein is at least 10 µM. Besides, in data set [1], the yeast surface expression amounted to 0.512.

For the variant chain 1 EVKLDETGGGLVQPGRPMKLSCVASGFTFSSFWMNWVRQSPEKGLEWVAQIRNKPYNYETYYSDSVKGRFTISRDDSKSSVYLQMNNLRVEDMGIYYCTGSYYGMDYWGQGTSVTVS chain 2 DVVMTQTPLSLPVSLGDQASISCRSSQSLVHSNGNTYLRWYLQKPGQSPKVLIYKVSNRFSGVPDRFSGSGSGTDFTLKISRVEAEDLGVYFCSQSTHVPWTFGGGTKLEIK [chain 1 D31S Y32F], the Kd with fluorescein came to 0.018 µM. The yeast surface expression in data set [1] was found to be 0.876.

chain 1 EVKLDETGGGLVQPGRPMKLSCVASGFTFSDYWMNWVRQSPEKGLEWVAQIRNKPYNYETYYSDSVKGRFTISRDDSKSSVYLQMNNLRVEDMGIYYCTGSYYNMDYWYQGTSVTVS chain 2 DVVMTQTPLSLPVSLGDQASISCRSSQSLVHSNGNTYLRWYLQKPGQSPKVLIYKVSNRFSGVPDRFSGSGSGTDFTLKISRVEAEDLGVYFCSQSTHVPWTFGGGTKLEIK [chain 1 G104N G109Y]: the Kd with fluorescein is at least 10 µM. The yeast surface expression in data set [1] amounted to 0.305.

Turning to chain 1 EVKLDETGGGLVQPGRPMKLSCVASGFTFSDYWMNWVRQSPEKGLEWVAQIRNKPYNYETYYSDSVKGRFTISRDDSKSSVYLQMNNLRVEDMGIYYCTMVYYGMDYWGQGTSVTVS chain 2 DVVMTQTPLSLPVSLGDQASISCRSSQSLVHSNGNTYLRWYLQKPGQSPKVLIYKVSNRFSGVPDRFSGSGSGTDFTLKISRVEAEDLGVYFCSQSTHVPWTFGGGTKLEIK [chain 1 G100M S101V], in the data set with fluorescein, the Kd is at least 10 µM. For the same variant, the yeast surface expression in data set [1] worked out at 0.549.

chain 1 EVKLDETGGGLVQPGRPMKLSCVASGFTFSDYWMNWVRQSPEKGLEWVAQIRNKPYNYETYYSDSVKGRFTISRDDSKSSVYLQMNNLRVEDMGIYYCTWPYYGMDYWGQGTSVTVS chain 2 DVVMTQTPLSLPVSLGDQASISCRSSQSLVHSNGNTYLRWYLQKPGQSPKVLIYKVSNRFSGVPDRFSGSGSGTDFTLKISRVEAEDLGVYFCSQSTHVPWTFGGGTKLEIK [chain 1 G100W S101P]: in the data set with fluorescein, the Kd is at least 10 µM. Besides, in data set [1], the yeast surface expression came to 0.197.

As for chain 1 EVKLDETGGGLVQPGRPMKLSCVASGFTFSDYPMNWVRQSPEKGLEWVAQIRNKPYNYETYYSDSVKGRFTISRDDSKSSVYLQMNNLRVEDMGIYYCTGSYYGMDYWGQGTSVTVS chain 2 DVVMTQTPLSLPVSLGDQASISCRSSQSLVHSNGNTYLRWYLQKPGQSPKVLIYKVSNRFSGVPDRFSGSGSGTDFTLKISRVEAEDLGVYFCSQSTHVPWTFGGGTKLEIK [chain 1 W33P], in the data set with fluorescein, the Kd is at least 10 µM. The yeast surface expression in data set [1] came to 0.803.

For chain 1 EVKLDETGGGLVQPGRPMKLSCVASGFTFSDPWMNWGRQSPEKGLEWVAQIRNKPYNYETYYSDSVKGRFTISRDDSKSSVYLQMNNLRVEDMGIYYCTGSYYGMDYWGQGTSVTVS chain 2 DVVMTQTPLSLPVSLGDQASISCRSSQSLVHSNGNTYLRWYLQKPGQSPKVLIYKVSNRFSGVPDRFSGSGSGTDFTLKISRVEAEDLGVYFCSQSTHVPWTFGGGTKLEIK [chain 1 Y32P V37G], the Kd with fluorescein was at least 10 µM. The yeast surface expression in data set [1] is 2.54.

For the variant chain 1 EVKLDETGGGLVQPGRPMKLSCVASGFTFSDYWMNWVRQSPEKGLEWVAQIRNKPYNYETYYSDSVKGRFTISRDDSKSSVYLQMNNLRVEDMGIYYCTGSYYGWDPWGQGTSVTVS chain 2 DVVMTQTPLSLPVSLGDQASISCRSSQSLVHSNGNTYLRWYLQKPGQSPKVLIYKVSNRFSGVPDRFSGSGSGTDFTLKISRVEAEDLGVYFCSQSTHVPWTFGGGTKLEIK [chain 1 M105W Y107P], in the data set with fluorescein, the Kd is at least 10 µM. The yeast surface expression in data set [1] worked out at 0.452.

chain 1 EVKLDETGGGLVQPGRPMKLSCVASGFTFSDYWMNWVRQSPEKGLEWVAQIRNKPYNYETYYSDSVKGRFTISRDDSKSSVYLQMNNLRVEDMGIYYCTGRYYGMDYWMQGTSVTVS chain 2 DVVMTQTPLSLPVSLGDQASISCRSSQSLVHSNGNTYLRWYLQKPGQSPKVLIYKVSNRFSGVPDRFSGSGSGTDFTLKISRVEAEDLGVYFCSQSTHVPWTFGGGTKLEIK [chain 1 S101R G109M]: in the data set with fluorescein, the Kd is at least 10 µM. Further, the yeast surface expression in data set [1] was 0.251.

As for chain 1 EVKLDETGGGLVQPGRPMKLSCVASGFTFSDYWMNWVRQSPEKGLEWVAQIRNKPYNYETYYSDSVKGRFTISRDDSKSSVYLQMNNLRVEDMGIYYCTGSYYIMNYWFQGTSVTVS chain 2 DVVMTQTPLSLPVSLGDQASISCRSSQSLVHSNGNTYLRWYLQKPGQSPKVLIYKVSNRFSGVPDRFSGSGSGTDFTLKISRVEAEDLGVYFCSQSTHVPWTFGGGTKLEIK [chain 1 G104I D106N G109F], in the data set with fluorescein, the Kd was 0.345 µM. In addition, the yeast surface expression in data set [1] was 0.094.

Turning to chain 1 EVKLDETGGGLVQPGRPMKLSCVASGFTFSDYWMNWVRQSPEKGLEWVAQIRNKPYNYETYYSDSVKGRFTISRDDSKSSVYLQMNNLRVEDMGIYYCTGDYYHMAYWGQGTSVTVS chain 2 DVVMTQTPLSLPVSLGDQASISCRSSQSLVHSNGNTYLRWYLQKPGQSPKVLIYKVSNRFSGVPDRFSGSGSGTDFTLKISRVEAEDLGVYFCSQSTHVPWTFGGGTKLEIK [chain 1 S101D G104H D106A], the Kd in the data set with fluorescein was at least 10 µM. For the same variant, the yeast surface expression in data set [1] turned out to be 0.353.

The values above are taken from the FLAb antibody collection (doi:10.7554/elife.23156).
